Consider one molecule from patent US20190352411A1 (ALLIGATOR BIOSCIENCE, published 2019).

Read-outs that look alike come from different tables or passages of the source.

For assay [1], the target named is T1, recombinant human OX40 (R&D #1493-CD) (human, UniProt P43489 29-216, limits assumed).
T1 construct: Coated on ELISA plates
T1 sequence (looked up): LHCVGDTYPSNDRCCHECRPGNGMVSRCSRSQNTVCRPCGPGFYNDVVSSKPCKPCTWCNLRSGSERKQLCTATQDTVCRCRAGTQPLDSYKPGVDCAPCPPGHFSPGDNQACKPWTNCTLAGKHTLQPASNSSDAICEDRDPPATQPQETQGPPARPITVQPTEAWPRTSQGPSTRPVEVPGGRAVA
Kind of assay: ELISA, coated OX40. The protocol: (§1) Binding to TNFR superfamily members for which ELISA methods had already been established (CD40 and OX40) was evaluated to detect potential propensity to cross react to non-target proteins.
(§2) ELISA plates (Greiner #655074) were coated with 50 μl/well of recombinant human OX40 (R&D #1493-CD), CD40-Fc (Ancell #504-820) or CD137 (R&D #838-4B) diluted to a final concentration of 0.5 μg/ml in PBS for 1 h at 37° C. or overnight at 4° C. Plates were washed with PBS+0.05% TWEEN20 (PBST), followed by block with PBST+1% bovine serum albumin (BSA). Antibody samples were prepared as serial 1/10 dilutions from 10-0.01 μg/ml in PBST+1% BSA and incubated for 1 h in room temperature, followed by detection using a horse radish peroxidase-conjugated anti-human kappa light chain antibody (AbD Serotec # STAR127P) and developed using SuperSignal ELISA Pico Chemiluminescent substrate (Pierce ThermoScientific #37069).
In general terms: An ELISA detects its analyte on a solid surface through an enzyme-linked reagent.

Assay [2] deals with T2, cynomolgus CD137 on transfected CHO cells (CHO-cyCD137) (cynomolgus (Macaca fascicularis); human).
T2 construct: extracellular domain;domain: transmembrane and intracellular part; also called cyno CD137
T2 sequence (P25942 other isoform, or with tags, fused parts or gaps): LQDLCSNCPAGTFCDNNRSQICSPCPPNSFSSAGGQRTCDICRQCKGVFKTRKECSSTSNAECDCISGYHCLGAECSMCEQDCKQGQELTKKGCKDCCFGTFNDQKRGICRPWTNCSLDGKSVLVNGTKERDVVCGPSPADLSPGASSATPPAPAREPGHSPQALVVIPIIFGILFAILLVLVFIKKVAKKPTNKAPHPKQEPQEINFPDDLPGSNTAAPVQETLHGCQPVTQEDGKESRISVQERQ
Kind of assay: flow cytometry on CHO-cyCD137 cells; 95% confidence interval of the EC50. As for the experimental part: (§3) Binding and EC50 was determined using flow cytometric of CHO cells transfected with human CD137, cynomolgus CD137 or empty vector. The extracellular part of human or cynomolgus CD137 was fused to the transmembrane and intracellular part of human CD40 and cloned into pcDNA3.1. The vector was subsequently stably transfected into CHO cells. […] CD137-transfected and empty vector-transfected cells were incubated with CD137 antibodies for at least 1 h at 4° C. to saturate the binding. In order to minimize antibody internalization, 0.05% sodium azide was used in the incubation buffer and all work was performed on ice. The CD137 antibodies were detected using PE-conjugated anti-hIgG antibody (109-115-098, Jackson Immunoresearch laboratories), incubated for 30 min at 4° C. Directly after staining the cells were fixed with a paraformaldehyde solution (10× concentrate BD CellFIX, BD biosciences #340181). Cells were analyzed by flow cytometry using FACSVerse (BD Biosciences). The median fluorescence intensity (MFI) for each sample was determined and the dose response data was analysed using Graph Pad Prism.
(§4) MFI data was normalized for each antibody, where 0% is defined as the lowest value and 100% is the highest value in the dose titration for each antibody.
Background: In flow cytometry, cells or beads pass a laser one at a time.

Assay [3] addresses T2, cynomolgus CD137 on transfected CHO …. The description is as above. This is another data set of the same source.
The target is the same in assay [4]. In words: flow cytometry on CHO cells transfected with cynomolgus CD137, PE anti-hIgG detection, MFI normalised 0-100% for each antibody. The protocol:
as §3, §4

Assay [5] concerns the target T3, CD40-Fc (Ancell #504-820) (human, UniProt P25942 21-193).
T3 construct: Coated on ELISA plates; not shown: Fc part of the commercial fusion protein; not described
Kind of assay: ELISA, coated CD40-Fc. As for the experimental part: as §1, §2

Assay [6] has as its target T4, recombinant human CD137-Fc (R&D #838-4B) (human, UniProt Q07011 24-186).
T4 construct: Bought protein coated on ELISA plates; also called CD137 (R&D #838-4B); not shown: Fc part of the commercial fusion protein; not described
In words: ELISA, coated human CD137-Fc; mean.

The target in assay [7] is cynomolgus CD137 (Acro Biosystems #41B-C52H4) (cynomolgus, UniProt A9YYE7 24-186). Kind of assay: Octet (BLI), antibody amine-coupled to ARG2 biosensor, soluble CD137 as analyte, 1:1 model. As for the experimental part: (§5) Materials and method CD137 affinity was determined using the Octet Red 96 platform (ForteBio). […] 7 2-fold serial dilutions of CD137 (Acro Biosystems #41B-H5227 and #41B-C52H4) from 100 nM was prepared in 1× kinetic buffer (ForteBio #18-1092). Association was measured for 180 s followed by dissociation for 180 s in 1× kinetic buffer. 10 mM Glycine pH 2.2 was used for regeneration.
Sequence of cynomolgus CD137 (Acro Biosystems #41B-C52H4) (A9YYE7 entry or part of it): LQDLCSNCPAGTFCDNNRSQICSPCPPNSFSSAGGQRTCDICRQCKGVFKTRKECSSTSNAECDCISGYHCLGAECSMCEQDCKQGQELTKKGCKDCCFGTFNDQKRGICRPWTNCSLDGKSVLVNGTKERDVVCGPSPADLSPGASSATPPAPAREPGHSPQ
(§6) Data generated was referenced by reference well subtraction (1188), the baseline was aligned with the y-axis, inter-step correlation by alignment against association was performed and the data was smoothed by a Savitzky-Golay filtering in the data analysis software (v.9.0.0.14). The processed data was fitted using a 1:1 Langmuir binding model with X² as a measurement of fitting accuracy.
A general note: Biolayer interferometry detects binding as a change in optical thickness at a sensor tip.

Assay [8] concerns the target human CD137 (Acro Biosystems #41B-H5227) (human, UniProt Q07011 24-186). Described as above. As for the experimental part:
as §5, §6

Assay [9] concerns the target T5, human CD137 on transfected CHO cells (CHO-huCD137) (human).
T5 construct: domain: transmembrane and intracellular part
In words: flow cytometry on CHO-huCD137 cells; 95% confidence interval of the EC50. As for the experimental part: as §3, §4

Assay [10] concerns the target T5, human CD137 on transfected CHO cells …. In words: flow cytometry on CHO cells transfected with human CD137, PE anti-hIgG detection, MFI normalised 0-100% for each antibody. The protocol:
as §3, §4

Sequence of human CD137 (Acro Biosystems #41B-H5227) (Q07011 24-186 limits assumed): as the sequence (A9YYE7 entry or part of it) above, with L4P, S19N, K50R, I66T, S67P, Y69F, E75G, A149V counted along it
T5 sequence (P25942 other isoform, or with tags, fused parts or gaps limits assumed): as the sequence (P25942 other isoform, or with tags, fused parts or gaps) above, with L4P, S19N, K50R, I66T, S67P, Y69F, E75G, A149V counted along it
T3 sequence (P25942 21-193 limits assumed): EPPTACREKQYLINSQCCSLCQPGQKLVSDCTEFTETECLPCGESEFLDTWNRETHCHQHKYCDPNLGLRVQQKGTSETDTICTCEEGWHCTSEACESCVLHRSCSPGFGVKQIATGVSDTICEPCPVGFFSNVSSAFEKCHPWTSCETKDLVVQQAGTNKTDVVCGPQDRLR
T4 sequence (Q07011 24-186 limits assumed): as the sequence (A9YYE7 entry or part of it) above, with L4P, S19N, K50R, I66T, S67P, Y69F, E75G, A149V counted along it

B1: 1630/1631 (antibody, human IgG4 S228P, kappa, V domains shown)
VH: EVQLLESGGGLVQPGGSLRLSCAASGFTFGYSYMSWVRQAPGKGLEWVSSIGSGSSYTYYADSVKGRFTISRDNSKNTLYLQMNSLRAEDTAVYYCARVYSSPGIDYWGQGTLVTVSS
VL: DIQMTQSPSSLSASVGDRVTITCRASQSISSYLNWYQQKPGKAPKLLIYAASSLQSGVPSRFSGSGSGTDFTLTISSLQPEDFATYYCQQYYTWVPFTFGQGTKLEIKR
notes: the format in each assay is not restated
On to B1, for which the binding result in assay [1] and in assay [5] was “no binding (tested: 10 µg/ml highest concentration tested)” each time. In addition, the EC50 (usually the concentration needed to bring the measured effect to its halfway point) in assay [2] was 0.55 to 0.87 nM; in assay [3], 0.12 to 0.16 µg/mL; in assay [6], 0.27 nM; in [9] it was 0.17 to 0.26 µg/mL. For the same molecule, the EC50 (read off the curve) (in general, the concentration that produces a half-maximal response) was about 0.1 µg/mL in assay [4] and about 0.2 µg/mL in [10]. Moreover, the Kd – broadly, a measure of binding affinity in units of concentration – worked out at 18 nM in assay [7] and 14 nM in assay [8]. Besides, the koff (usually the rate constant with which the complex falls apart) in assay [7] was determined as 0.0025 s⁻¹; in assay [8] it was 0.0023 s⁻¹. The kon (commonly the rate constant with which the complex forms) was 140000 M⁻¹ s⁻¹ in assay [7] and 160000 M⁻¹ s⁻¹ in [8].
